T1: CD154 (human, UniProt P29965 113-261, limits assumed)
T1 construct: also called CD40 ligand; CD40L
T1 sequence (looked up): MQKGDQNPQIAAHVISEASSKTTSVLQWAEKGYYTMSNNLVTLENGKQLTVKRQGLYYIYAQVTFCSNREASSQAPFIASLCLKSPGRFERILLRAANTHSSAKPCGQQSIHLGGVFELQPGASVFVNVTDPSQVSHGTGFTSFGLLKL


Key:
CD154 [1] = target: T1, CD154; experiment: ELISA-based competitive binding assay; unlabeled Fab against biotin-labeled 5c8 Fab competitor
CD154 [2] = target: T1, CD154; experiment: assay not named in the sentence (mutants characterized by competitive ELISA)
CD154 [3] = target: T1, CD154; experiment: assay not given

ELISA fold-improvement over wildtype (CD154 [1]) [fold over wildtype]	fold higher affinity compared to the wildtype 5c8 Fab (CD154 [2]) [fold over wildtype]	fold higher affinity compared to the wild type (CD154 [3]) [fold over wild type]	Binder
2.3	–	–	5c8 Fab Mutant #1 (heavy chain T30H) (Fab, V domains shown, Fab fragment) VH: QVQLVQSGAEVVKPGASVKLSCKASGYIFHSYYMYWVKQAPGQGLEWIGEINPSNGDTNFNEKFKSKATLTVDKSASTAYMELSSLRSEDTAVYYCTRSDGRNDMDSWGQGTLVTVSS VL: DIVLTQSPATLSVSPGERATISCRASQRVSSSTYSYMHWYQQKPGQPPKLLIKYASNLESGVPARFSGSGSGTDFTLTISSVEPEDFATYYCQHSWEIPPTFGGGTKLEIK
2.6	–	–	5c8 Fab Mutant #6 (light chain S26D) (Fab, V domains shown, Fab fragment) VH: QVQLVQSGAEVVKPGASVKLSCKASGYIFTSYYMYWVKQAPGQGLEWIGEINPSNGDTNFNEKFKSKATLTVDKSASTAYMELSSLRSEDTAVYYCTRSDGRNDMDSWGQGTLVTVSS VL: DIVLTQSPATLSVSPGERATISCRADQRVSSSTYSYMHWYQQKPGQPPKLLIKYASNLESGVPARFSGSGSGTDFTLTISSVEPEDFATYYCQHSWEIPPTFGGGTKLEIK
5.4	–	–	5c8 Fab Mutant #18 (heavy chain T30H; light chain S26D/Q27E/T33W) (Fab, V domains shown, Fab fragment) VH: QVQLVQSGAEVVKPGASVKLSCKASGYIFHSYYMYWVKQAPGQGLEWIGEINPSNGDTNFNEKFKSKATLTVDKSASTAYMELSSLRSEDTAVYYCTRSDGRNDMDSWGQGTLVTVSS VL: DIVLTQSPATLSVSPGERATISCRADERVSSSWYSYMHWYQQKPGQPPKLLIKYASNLESGVPARFSGSGSGTDFTLTISSVEPEDFATYYCQHSWEIPPTFGGGTKLEIK
3.8	–	–	5c8 Fab Mutant #15 (light chain S26D/Q27E/T33W) (Fab, V domains shown, Fab fragment) VH: QVQLVQSGAEVVKPGASVKLSCKASGYIFTSYYMYWVKQAPGQGLEWIGEINPSNGDTNFNEKFKSKATLTVDKSASTAYMELSSLRSEDTAVYYCTRSDGRNDMDSWGQGTLVTVSS VL: DIVLTQSPATLSVSPGERATISCRADERVSSSWYSYMHWYQQKPGQPPKLLIKYASNLESGVPARFSGSGSGTDFTLTISSVEPEDFATYYCQHSWEIPPTFGGGTKLEIK
0.13	–	–	5c8 Fab Mutant #12 (heavy chain N59D) (Fab, V domains shown, also called Asn59Asp) VH: QVQLVQSGAEVVKPGASVKLSCKASGYIFTSYYMYWVKQAPGQGLEWIGEINPSNGDTDFNEKFKSKATLTVDKSASTAYMELSSLRSEDTAVYYCTRSDGRNDMDSWGQGTLVTVSS VL: DIVLTQSPATLSVSPGERATISCRASQRVSSSTYSYMHWYQQKPGQPPKLLIKYASNLESGVPARFSGSGSGTDFTLTISSVEPEDFATYYCQHSWEIPPTFGGGTKLEIK
0.01	–	–	5c8 Fab Mutant #13 (heavy chain N59L) (Fab, V domains shown, also called Asn59Leu) VH: QVQLVQSGAEVVKPGASVKLSCKASGYIFTSYYMYWVKQAPGQGLEWIGEINPSNGDTLFNEKFKSKATLTVDKSASTAYMELSSLRSEDTAVYYCTRSDGRNDMDSWGQGTLVTVSS VL: DIVLTQSPATLSVSPGERATISCRASQRVSSSTYSYMHWYQQKPGQPPKLLIKYASNLESGVPARFSGSGSGTDFTLTISSVEPEDFATYYCQHSWEIPPTFGGGTKLEIK
8	–	–	5c8 Fab Mutant #24 (heavy chain T30H/Y33W; light chain S26D/Q27E) (Fab, V domains shown, Fab fragment) VH: QVQLVQSGAEVVKPGASVKLSCKASGYIFHSYWMYWVKQAPGQGLEWIGEINPSNGDTNFNEKFKSKATLTVDKSASTAYMELSSLRSEDTAVYYCTRSDGRNDMDSWGQGTLVTVSS VL: DIVLTQSPATLSVSPGERATISCRADERVSSSTYSYMHWYQQKPGQPPKLLIKYASNLESGVPARFSGSGSGTDFTLTISSVEPEDFATYYCQHSWEIPPTFGGGTKLEIK
5.6	9	–	5c8 Fab Mutant #14 (light chain S26D/Q27E) (Fab, V domains shown, Fab fragment; also called double mutant) VH: QVQLVQSGAEVVKPGASVKLSCKASGYIFTSYYMYWVKQAPGQGLEWIGEINPSNGDTNFNEKFKSKATLTVDKSASTAYMELSSLRSEDTAVYYCTRSDGRNDMDSWGQGTLVTVSS VL: DIVLTQSPATLSVSPGERATISCRADERVSSSTYSYMHWYQQKPGQPPKLLIKYASNLESGVPARFSGSGSGTDFTLTISSVEPEDFATYYCQHSWEIPPTFGGGTKLEIK
5.9	–	–	5c8 Fab Mutant #17 (heavy chain Y33W; light chain S26D/Q27E/T33W) (Fab, V domains shown, Fab fragment) VH: QVQLVQSGAEVVKPGASVKLSCKASGYIFTSYWMYWVKQAPGQGLEWIGEINPSNGDTNFNEKFKSKATLTVDKSASTAYMELSSLRSEDTAVYYCTRSDGRNDMDSWGQGTLVTVSS VL: DIVLTQSPATLSVSPGERATISCRADERVSSSWYSYMHWYQQKPGQPPKLLIKYASNLESGVPARFSGSGSGTDFTLTISSVEPEDFATYYCQHSWEIPPTFGGGTKLEIK
0.22	–	–	5c8 Fab Mutant #9 (light chain T33D) (Fab, V domains shown) VH: QVQLVQSGAEVVKPGASVKLSCKASGYIFTSYYMYWVKQAPGQGLEWIGEINPSNGDTNFNEKFKSKATLTVDKSASTAYMELSSLRSEDTAVYYCTRSDGRNDMDSWGQGTLVTVSS VL: DIVLTQSPATLSVSPGERATISCRASQRVSSSDYSYMHWYQQKPGQPPKLLIKYASNLESGVPARFSGSGSGTDFTLTISSVEPEDFATYYCQHSWEIPPTFGGGTKLEIK
7	–	–	5c8 Fab Mutant #2 (heavy chain Y33W) (Fab, V domains shown, Fab fragment) VH: QVQLVQSGAEVVKPGASVKLSCKASGYIFTSYWMYWVKQAPGQGLEWIGEINPSNGDTNFNEKFKSKATLTVDKSASTAYMELSSLRSEDTAVYYCTRSDGRNDMDSWGQGTLVTVSS VL: DIVLTQSPATLSVSPGERATISCRASQRVSSSTYSYMHWYQQKPGQPPKLLIKYASNLESGVPARFSGSGSGTDFTLTISSVEPEDFATYYCQHSWEIPPTFGGGTKLEIK
0.05	–	–	5c8 Fab Mutant #11 (heavy chain Y33F) (Fab, V domains shown) VH: QVQLVQSGAEVVKPGASVKLSCKASGYIFTSYFMYWVKQAPGQGLEWIGEINPSNGDTNFNEKFKSKATLTVDKSASTAYMELSSLRSEDTAVYYCTRSDGRNDMDSWGQGTLVTVSS VL: DIVLTQSPATLSVSPGERATISCRASQRVSSSTYSYMHWYQQKPGQPPKLLIKYASNLESGVPARFSGSGSGTDFTLTISSVEPEDFATYYCQHSWEIPPTFGGGTKLEIK
5	–	–	5c8 Fab Mutant #5 (light chain T33W) (Fab, V domains shown, Fab fragment) VH: QVQLVQSGAEVVKPGASVKLSCKASGYIFTSYYMYWVKQAPGQGLEWIGEINPSNGDTNFNEKFKSKATLTVDKSASTAYMELSSLRSEDTAVYYCTRSDGRNDMDSWGQGTLVTVSS VL: DIVLTQSPATLSVSPGERATISCRASQRVSSSWYSYMHWYQQKPGQPPKLLIKYASNLESGVPARFSGSGSGTDFTLTISSVEPEDFATYYCQHSWEIPPTFGGGTKLEIK
5.6	–	25	5c8 Fab Mutant #25 (heavy chain T30H/Y33W; light chain S26D/Q27E/T33W) (Fab, V domains shown, Fab fragment; also called combination 5 point mutation (assigned)) VH: QVQLVQSGAEVVKPGASVKLSCKASGYIFHSYWMYWVKQAPGQGLEWIGEINPSNGDTNFNEKFKSKATLTVDKSASTAYMELSSLRSEDTAVYYCTRSDGRNDMDSWGQGTLVTVSS VL: DIVLTQSPATLSVSPGERATISCRADERVSSSWYSYMHWYQQKPGQPPKLLIKYASNLESGVPARFSGSGSGTDFTLTISSVEPEDFATYYCQHSWEIPPTFGGGTKLEIK
6.3	–	–	5c8 Fab Mutant #7 (light chain Q27E) (Fab, V domains shown, Fab fragment) VH: QVQLVQSGAEVVKPGASVKLSCKASGYIFTSYYMYWVKQAPGQGLEWIGEINPSNGDTNFNEKFKSKATLTVDKSASTAYMELSSLRSEDTAVYYCTRSDGRNDMDSWGQGTLVTVSS VL: DIVLTQSPATLSVSPGERATISCRASERVSSSTYSYMHWYQQKPGQPPKLLIKYASNLESGVPARFSGSGSGTDFTLTISSVEPEDFATYYCQHSWEIPPTFGGGTKLEIK
2	–	–	5c8 Fab Mutant #4 (heavy chain S54N) (Fab, V domains shown, Fab fragment) VH: QVQLVQSGAEVVKPGASVKLSCKASGYIFTSYYMYWVKQAPGQGLEWIGEINPNNGDTNFNEKFKSKATLTVDKSASTAYMELSSLRSEDTAVYYCTRSDGRNDMDSWGQGTLVTVSS VL: DIVLTQSPATLSVSPGERATISCRASQRVSSSTYSYMHWYQQKPGQPPKLLIKYASNLESGVPARFSGSGSGTDFTLTISSVEPEDFATYYCQHSWEIPPTFGGGTKLEIK
5.2	–	–	5c8 Fab Mutant #23 (heavy chain Y33W; light chain S26D/Q27E) (Fab, V domains shown, Fab fragment) VH: QVQLVQSGAEVVKPGASVKLSCKASGYIFTSYWMYWVKQAPGQGLEWIGEINPSNGDTNFNEKFKSKATLTVDKSASTAYMELSSLRSEDTAVYYCTRSDGRNDMDSWGQGTLVTVSS VL: DIVLTQSPATLSVSPGERATISCRADERVSSSTYSYMHWYQQKPGQPPKLLIKYASNLESGVPARFSGSGSGTDFTLTISSVEPEDFATYYCQHSWEIPPTFGGGTKLEIK
0.06	–	–	5c8 Fab Mutant #10 (light chain Y54E) (Fab, V domains shown) VH: QVQLVQSGAEVVKPGASVKLSCKASGYIFTSYYMYWVKQAPGQGLEWIGEINPSNGDTNFNEKFKSKATLTVDKSASTAYMELSSLRSEDTAVYYCTRSDGRNDMDSWGQGTLVTVSS VL: DIVLTQSPATLSVSPGERATISCRASQRVSSSTYSYMHWYQQKPGQPPKLLIKEASNLESGVPARFSGSGSGTDFTLTISSVEPEDFATYYCQHSWEIPPTFGGGTKLEIK
0.02	–	–	5c8 Fab Mutant #8 (light chain S31V) (Fab, V domains shown) VH: QVQLVQSGAEVVKPGASVKLSCKASGYIFTSYYMYWVKQAPGQGLEWIGEINPSNGDTNFNEKFKSKATLTVDKSASTAYMELSSLRSEDTAVYYCTRSDGRNDMDSWGQGTLVTVSS VL: DIVLTQSPATLSVSPGERATISCRASQRVSVSTYSYMHWYQQKPGQPPKLLIKYASNLESGVPARFSGSGSGTDFTLTISSVEPEDFATYYCQHSWEIPPTFGGGTKLEIK
5.8	–	–	5c8 Fab Mutant #16 (heavy chain T30H; light chain S26D/Q27E) (Fab, V domains shown, Fab fragment) VH: QVQLVQSGAEVVKPGASVKLSCKASGYIFHSYYMYWVKQAPGQGLEWIGEINPSNGDTNFNEKFKSKATLTVDKSASTAYMELSSLRSEDTAVYYCTRSDGRNDMDSWGQGTLVTVSS VL: DIVLTQSPATLSVSPGERATISCRADERVSSSTYSYMHWYQQKPGQPPKLLIKYASNLESGVPARFSGSGSGTDFTLTISSVEPEDFATYYCQHSWEIPPTFGGGTKLEIK
